Assay: Rate of hydrolysis of PEG prodrugs in rat plasma (HPLC)
Assay type: in vitro ADME
Settings: 37° C., disappearance of PEG derivative
Experimental: The rates of hydrolysis were obtained by employing a C8 reversed phase column (Zorbax® SB-C8) using a gradient mobile phase made of (a) 0.1 M triethylammonium acetate buffer and (b) acetonitrile. A flow rate of 1 mL/min was used, and chromatograms were monitored using a UV detector. For hydrolysis in buffer, PEG derivatives were dissolved in 0.1 M pH 7.4 PBS at a concentration of 5 mg/mL, while for hydrolysis in plasma, the derivatives were dissolved in distilled water at a concentration of 20 mg/100 μL and 900 μL of rat plasma was added to this solution. The mixture was vortexed for 2 min and divided into 2 mL glass vials with 100 μL of the aliquot per each vial. The solutions were incubated at 37° C. for various periods of time. A mixture of methanol-acetonitrile (1:1, v/v, 400 μL) was added to a vial at the proper interval and the mixture was vortexed for 1 min, followed by filtration through […] filter membrane (optionally followed by a second filtration through […] filter membrane). An aliquot of 20 μL of the filtrate was injected into the HPLC. On the basis of the peak area, the amounts of native compound and PEG derivative were estimated, and the half-life of each compound in different media was calculated using linear regression analysis from the disappearance of PEG derivative.

Which results are given for PEG-[Lys (DGA-SCH AF)2]2 [Compound 12a]?
t1/2α of hydrolysis: 5 h; t1/2β of hydrolysis: 15 h

From US20090203706A1, “LYSINE-BASED POLYMERIC LINKERS” (priority 2006, published 2009)
